# Article PMC2586830 (Molecular Microbiology, 2008)
# Target: PhoB (Escherichia coli) (UniProt P0AFJ5)
# Experiment: not given
# Settings: cited from earlier work
# Chain of PhoB (P0AFJ5 whole entry): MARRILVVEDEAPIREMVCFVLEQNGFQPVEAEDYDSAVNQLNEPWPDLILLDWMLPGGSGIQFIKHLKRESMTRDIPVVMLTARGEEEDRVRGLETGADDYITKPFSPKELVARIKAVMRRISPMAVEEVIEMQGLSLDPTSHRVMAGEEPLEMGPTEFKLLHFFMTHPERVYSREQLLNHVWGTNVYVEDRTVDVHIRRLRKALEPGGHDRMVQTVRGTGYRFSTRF
# Chain of PhoB (Escherichia coli) (P0AFJ5 whole entry): as above
row,Molecule,Kd
1,PhoB (from UniProt P0AFJ5),378 µM

# Target: PhoB (Escherichia coli) (UniProt P0AFJ5)
# Experiment: analytical ultracentrifugation
# Settings: cited from earlier work
row,Molecule,Kd
1,PhoB (from UniProt P0AFJ5),5.1 µM

# Target: the molecule itself
# Experiment: FRET or BRET
# Settings: not given
row,Molecule,binding result
1,"CFP–CreB / YFP–CreB, phosphorylated (natural protein, phosphorylated in vitro with phosphoramidate and MgSO4 (conserved aspartate of the receiver domain; residue number not given)) MQRETVWLVEDEQGIADTLVYMLQQEGFAVEVFERGLPVLDKARKQVPDVMILDVGLPDISGFELCRQLLALHPALPVLFLTARSEEVDRLLGLEIGADDYVAKPFSPREVCARVRTLLRRVKKFSTPSPVIRIGHFELNEPAAQISWFDTPLALTRYEFLLLKTLLKSPGRVWSRQQLMDSVWEDAQDTYDRTVDTHIKTLRAKLRAINPDLSPINTHRGMGYSLRGL",binds
2,"CFP–CpxR / YFP–CpxR, phosphorylated (natural protein, phosphorylated in vitro with phosphoramidate and MgSO4 (conserved aspartate of the receiver domain; residue number not given)) MNKILLVDDDRELTSLLKELLEMEGFNVIVAHDGEQALDLLDDSIDLLLLDVMMPKKNGIDTLKALRQTHQTPVIMLTARGSELDRVLGLELGADDYLPKPFNDRELVARIRAILRRSHWSEQQQNNDNGSPTLEVDALVLNPGRQEASFDGQTLELTGTEFTLLYLLAQHLGQVVSREHLSQEVLGKRLTPFDRAIDMHISNLRRKLPDRKDGHPWFKTLRGRGYLMVSAS",binds
3,"CFP–TorR / YFP–TorR, phosphorylated (natural protein, phosphorylated in vitro with phosphoramidate and MgSO4 (conserved aspartate of the receiver domain; residue number not given)) MPHHIVIVEDEPVTQARLQSYFTQEGYTVSVTASGAGLREIMQNQSVDLILLDINLPDENGLMLTRALRERSTVGIILVTGRSDRIDRIVGLEMGADDYVTKPLELRELVVRVKNLLWRIDLARQAQPHTQDNCYRFAGYCLNVSRHTLERDGEPIKLTRAEYEMLVAFVTNPGEILSRERLLRMLSARRVENPDLRTVDVLIRRLRHKLSADLLVTQHGEGYFLAADVC",binds
4,"CFP–PhoP / YFP–PhoP, phosphorylated (natural protein, phosphorylated in vitro with phosphoramidate and MgSO4 (conserved aspartate of the receiver domain; residue number not given)) MRVLVVEDNALLRHHLKVQIQDAGHQVDDAEDAKEADYYLNEHIPDIAIVDLGLPDEDGLSLIRRWRSNDVSLPILVLTARESWQDKVEVLSAGADDYVTKPFHIEEVMARMQALMRRNSGLASQVISLPPFQVDLSRRELSINDEVIKLTAFEYTIMETLIRNNGKVVSKDSLMLQLYPDAELRESHTIDVLMGRLRKKIQAQYPQEVITTVRGQGYLFELR",binds
5,"CFP–KdpE / YFP–KdpE, phosphorylated (natural protein, phosphorylated in vitro with phosphoramidate and MgSO4 (conserved aspartate of the receiver domain; residue number not given)) MTNVLIVEDEQAIRRFLRTALEGDGMRVFEAETLQRGLLEAATRKPDLIILDLGLPDGDGIEFIRDLRQWSAVPVIVLSARSEESDKIAALDAGADDYLSKPFGIGELQARLRVALRRHSATTAPDPLVKFSDVTVDLAARVIHRGEEEVHLTPIEFRLLAVLLNNAGKVLTQRQLLNQVWGPNAVEHSHYLRIYMGHLRQKLEQDPARPRHFITETGIGYRFML",binds
6,"CFP–BaeR / YFP–BaeR, phosphorylated (natural protein, phosphorylated in vitro with phosphoramidate and MgSO4 (conserved aspartate of the receiver domain; residue number not given)) MTELPIDENTPRILIVEDEPKLGQLLIDYLRAASYAPTLISHGDQVLPYVRQTPPDLILLDLMLPGTDGLTLCREIRRFSDIPIVMVTAKIEEIDRLLGLEIGADDYICKPYSPREVVARVKTILRRCKPQRELQQQDAESPLIIDEGRFQASWRGKMLDLTPAEFRLLKTLSHEPGKVFSREQLLNHLYDDYRVVTDRTIDSHIKNLRRKLESLDAEQSFIRAVYGVGYRWEADACRIV",binds
7,"CFP–QseB / YFP–QseB, phosphorylated (natural protein, phosphorylated in vitro with phosphoramidate and MgSO4 (conserved aspartate of the receiver domain; residue number not given)) MRILLIEDDMLIGDGIKTGLSKMGFSVDWFTQGRQGKEALYSAPYDAVILDLTLPGMDGRDILREWREKGQREPVLILTARDALAERVEGLRLGADDYLCKPFALIEVAARLEALMRRTNGQASNELRHGNVMLDPGKRIATLAGEPLTLKPKEFALLELLMRNAGRVLSRKLIEEKLYTWDEEVTSNAVEVHVHHLRRKLGSDFIRTVHGIGYTLGEK",binds
8,"CFP–ArcA / YFP–ArcA, phosphorylated (natural protein, phosphorylated in vitro with phosphoramidate and MgSO4 (conserved aspartate of the receiver domain; residue number not given)) MQTPHILIVEDELVTRNTLKSIFEAEGYDVFEATDGAEMHQILSEYDINLVIMDINLPGKNGLLLARELREQANVALMFLTGRDNEVDKILGLEIGADDYITKPFNPRELTIRARNLLSRTMNLGTVSEERRSVESYKFNGWELDINSRSLIGPDGEQYKLPRSEFRAMLHFCENPGKIQSRAELLKKMTGRELKPHDRTVDVTIRRIRKHFESTPDTPEIIATIHGEGYRFCGDLED",binds
9,"CFP–CusR / YFP–CusR, phosphorylated (natural protein, phosphorylated in vitro with phosphoramidate and MgSO4 (conserved aspartate of the receiver domain; residue number not given)) MKLLIVEDEKKTGEYLTKGLTEAGFVVDLADNGLNGYHLAMTGDYDLIILDIMLPDVNGWDIVRMLRSANKGMPILLLTALGTIEHRVKGLELGADDYLVKPFAFAELLARVRTLLRRGAAVIIESQFQVADLMVDLVSRKVTRSGTRITLTSKEFTLLEFFLRHQGEVLPRSLIASQVWDMNFDSDTNAIDVAVKRLRGKIDNDFEPKLIQTVRGVGYMLEVPDGQ",binds
